# According to the DeepSol protein solubility set:
# Test: soluble on expression in E. coli; label from the status in PepcDB or PDB records
row,Sequence,soluble on expression in E. coli
1,MVALFQHSPYWQADGYGHSHRLKCQHFKQHRQYNDKLEISSNLGPQFNALLNILLNIVHPTLSHDTRRSKGLKIEGLLQSRELGNSWTVTMCIWVLKALQSSAPNKPLDWLDPMPCFQNLLARGTP,soluble
2,MVASCKSTSQPVSLSQKDSSPDFNRCRNDSEDTVNLTGSGDIYIDKESSQKALDDLLRKVTLDGGISLKDAKSSEILAAYERKIQMLQLELQMKNVPKPVVEIETTSQKIRDLAQECEALRDSNKQLTDHMTRGNLEINQLKVQLEEVKQKCDSIETSLGMCITEKAGLKTQLTESLQNAERNVHTAQNEISKLNTELAQSVTRIELFLAENRELKQEFEEKVVECEVLKEHIRQIDLELKNKQSDMERALLQISAAEQKAAKKELELIEAEKHLKLYESRLSDRERDLNAKNLEIDRLKLDLDAARRNLQKLEQMREAMLSLASSSSN,not soluble
3,MVASHSFEASILAYVLATELKRKGIEINPEHSALIALFHDAGETLLGDLPKWATSRINKRDAEVEAFDELGIGKELFLELKDLNTNEAKVAKLSDRLSTY,soluble
4,MVDKIIFTVTPIFSIPPRGAAAVETWMYQVAQRTNFPNRIVCIKNPGYSNYTFVNDNCSIHRVGFSRIYKRLFQKWTRLDPLPYSQRILNIAHDFPITKESVIVVHNSMKLYTQIRKRAPQARVVIHMHNAFEPKLLEQNVKMIVPSLYLKKYYQSYLANADIEIVPNGIDLETYQSNFQPITRSELNISPEEKIIFYAGRIVPDKGILLLMQSFEKLAAAHKNLKLVVIGDYTEMSKSDKGAYQRNVREIAKRLKDRCIMLGSIPPEKMHCYYPLADLVVIPSQFQEPFCMVAIEAMGAGKPVLVSTRGGMTEFVKENTTGFHLKEPMTADSISSDILKTLANPELTAVAKQGQDFVFDHYSWDGVTQRFEEVIHNWFE,not soluble
5,MVDTMMNTNTDGVTAVPPIFPLPSTTPNRNNNNELAMLAQKQIVAGLLLQQPTIVQAAVNGTNSQKHLADIDYTNVIQTLQALGTTNLKAFSLLLDPQSQTSQLISEDTRPSASSSPSSTATAVSNSGQSNATSTSSSSTEPEYKPRNVREKVYADGYIMSFDKKSCCGTKEFWRCERKNDCNARMHSDINTREIVRKLHPHNHEKPSPEELAFYEQDFSTLHPNYCHPVKSINRSYMQRKLSRASHVSQALPIAPQQIKAEPMEVDTTNQTIQNFQQNNNLMLLASINAAATAAAAATSAGISPPVVGQKRVSTTVMPITLKSQRTTPKEEEDSSQLMSQEEFRITYELTKKLMEMMKPKTEIGVRWQGDEGSILLFLSHDNGAEENVFFPVVVMNRDEKSLITALEGFTGKRCEGKLALCYSQRVNVLVHEALISNWTHGKLFLVNTDAPALWRLTPVDAFGEPLNHV,not soluble
6,MVESKATLEEYVQTQLLQNWIYNDGAYLSLAFDAMCEGNFDRLCELDWQLSATKVARESREGSFKLGVRLLKIFIRYETHTLLTAYQQAIAEKRVQGYFPIVFAMVAQAMGLSKADTLYAFYYNAAVGVITNGVKLIPLSQMDGQDILFDLRGSLVQAVELSLDPDEEWLGAATLANDIRAMQHEVLYTRLYMSLEHHHHHH,not soluble
7,MVFFNRNKIMNKDSTQTWGLKRDITPCFGARLVQEGHRLHFLADRAGFTGSFSEVQTLQLDEAFPHFVAHLELMLLSCELNPRYAHCVTLYRNGLTGEADTLGSHGYVYIAILNRHGFNRHLRVILEHHHHHH,not soluble
8,MVFMQKRIIYGIDIARGSPRARELPRYALAILRDGEISHFSMLRRQKIFNMIQRDRPEIIAVDNIFELAADRNELLSLMERLPDGVKLVQVTGGLHPEPLVRIARKHGISLDPENPNDEAEACARLADLGVGHEVSLFEDITKIKVSRARSLGRGGWSQNRYRRKVHGAVLQRSREIENILKDLSREKGIRFEAVNVKGFGGYVRSEFTVYAKRGEVPVHSMASNDAQVSVRSVERDKIRYVPLKPRSQKRKFTIVGLDPGTTVGIAILSLDGDLLYLKSFRGIAPDEVVKIIAEYGKPAVIASDVTPMPGSVEKIRRSFNAVPASPGIEVSAEEKIALGKTFGYSNDHERDALTAALLTYRSYKNIFTRIEKKAPENSDLELIKLHVIRGESIESAIEKVRAASQAREKPAGARAAPEKPEEKAVDESFQRMRETVQRQGEQIQNLQEYVEELKQAMAAKDRKISKLESRLKGFKKEAYSEIRKSKEVQIRDSTIESLKKELSNKNKTVKELRRRSNKLRKIQKMEIRGEGTPVKVIAAFTKESIAETKEKYGLKAGDVVFLEKPSGGGAATAQILVEARVRAVIIPEDISHAAEETFFKGDVPVLRDIQLERADDFAMALEHHHHHH,not soluble
9,MVFMYIGTVMVEKYNKPHLTFGDQAAQLQLRGLIINNPDDCIGALEKIGYYRLSAYWYPFRKKKPKASRTTPFNYRLDEFEPKHTFEEAVALYRFDESLRRLLLEALGVIEIQLRTKIAYFAGKQDRFIHLKRELLDPIACCRVPKNSTQDSYQIWLHKYHKQIKRAGREDFIRHYQARYGNDIPIWIATEILDFGGVSKLFDFLPKQLKNQIALSFGAKEGTVVAGWIRNFNYIRNVSAHHSRLWNRLVITRIQAPNRNVVDPSIFHLADVKNRKSP,not soluble
10,MVFSKKPITKYITWAIVTSQIPLPVIADSDNEIQSWIAGTASSISPHLQEGTLEDYAKGKIKALPGQAANHLVNEGIKSAFPEIIFRGGVNLEDGAKYRSSEFDMFIPVQETTSSLLFGQLGFRDHDNSSFDGRTYVNVGMGYRQEVNGWLLGVNTFLDADIRYSHLRGGIGGEVYKDSLAFSGNYYFPLTGWKMSAAHELHDERPAYGFDLRTKGTLPDFPWFSGELTYEQYYGDKVDLLGNGTLSRNPRAAGAALVWNPVPLLEVRAGYRDAGNGGSQAEGGLRVNYSFGTPLHEQLDYRNVGAPSNTTNRRAFVDRNYDIVMAYREQASKIRITAMPVSGLSGTLVTLMATVDSRYPVEKVEWSGDAELLAGLQLQGSLGSGLILPQLPLTATDGQEYSLYLTVTDSRGTRVTSERIPVRVTQDETSFRSWINVINDDVQVEDGNFVINTPLPAGEEGKVIEWHYVRERSEEEWASLKPRHIKYQSDTPGLAFKALGGTERDGHWVERVLVTHIGDDARSLKLHIEASGPDDKHPVKGTVLLQAQSDSIAQKVTSVEVLFTPGTEEANGSVTAPVVGTEMRARTLCVNNTDCTDAFNYQWEISDEMKSWQSVPGATKATWLLPYSLNGESLQNKYIRVRIISDKGNAKGNTATSDAN,not soluble
11,MVGDGIAKFIPEGFDAQKIPSFAIEKEPREQGALPADWVLVPEFSLTDGKANASLTVPEGTSIYGGGEVTGSLLRNGKTIKLWNTDSGAYGVDKGTRLYQSHPWMMGVRKDGTAFGILFDTTWKAELSSTDEKIELKSEGIPFRVFIIDRESPQAVIRGLSELTGTMPMIPRWALGYQQCRFSYSPDSRVIEIADTFRLKRIPCDVIWMDIDYMDGYRIFTFNPKSFPNPKAVNRDLHIRGFHSAWMIDPGAKVDPNYFVYKSGTENDVWVKTADGKNFHGDAWPGAAAFPDFTSPKVNKWWRNLYKDFLAQGVDGVWNDVNEPQINDTPNKTMPEDNLHRGGGKLPAGTHLQYHNVYGFLMVKASREGILDARPEKRPFILTRSNFLGGQRYAATWTGDNGSCWDHLKMSVPMSLTLGLSGQPFSGADIGGFLFNADADLFGNWIGFGAFYPFARGHACAGTNNKEPWVFGQKVEDASRIALERRYILLPYFYTLLHEASTNGMPIMRPVFFSDPKDLSLRAEEEAFLVGDNLLIIPAFANQPALPKGIWKELSLVEGDQNDKYQAKMKIRGGAIIPTGKIIQNTTENSLDPLTLLVCLDEQGKASGNMYWDAGDGWSYKKGDYSLLQFVAERNGDKVTVKLTKKTGKYNTENKDMAVIKIITDQGIRQASGNLVEGIEIRL,not soluble
12,MVHHDGFQTVKGTIDWEHPMYKLYEKAKRNGKWNPADIDFSQDKEDFARLTSEEKIAALPLVAGFSAGEEAVTLDILPMAHALARQGRLEDVMFLTTFMHDEAKHVEMFSRWQQEVGIGAMDLSVFHNDHYKRIFYEALPEAMNRLYTDDSPEAVIRAATVYNMIVEGTLAESGYYTFRQIYKKAGLFPGLLQGIDYLNMDEGRHIQFGLYTIQRLVNENERYYDLFIQYMDELWPHVVGYVAYLTELGKRQQQLARTYALEIDYDMLNNYVVKQFNIRKKQISRAKRVDSIEELEKTVAES,not soluble
13,MVINGLDILLQNPEVLRHRRVGLIANQTSVSMQLEYSWMLLKRAGVELTRIFSPEHGLFAIEQDQIAVGHQPDIGCEIVSLYGDSEHSLAPARELLDGLDLVLFDIQDVGSRYYTYVNTLALFMKAAEGLDIEIMVLDRPNPLGGSLIEGPQLDPAFHSFVGVMPLPVRHGLTAGEIAHFYRNYKKLDLNLNVIPMQGWSRQMLFPETCLPWVPPSPNMPSFEAAEVYPGMCLFEGLNVSEGRGTTTPFLLSGATFVDPEALAERLASMPLEGVVFRPTWFRPTFHKYAGEAIGGLYLHVTDHARFRPFATGVAMTCALYELYPEQLAFLDGVYEFRDDIPAFDLLAGSSTIRSMILDNRDTTAIIASWEKDEAEFAAIKPNFHLYNN,not soluble
14,MVINSPEKEDTALILYTSGTTGKPKGVMLTFDNILANVDSLDVYKMYEETDVTIALLPLHHILPLLGTGVMPLLYSATIVFLEDISSVALIDAMKKYKGTMMIGVPKLWEVMHKKIMDTINSKAITRFIFKLAKKVNSLSFSKLIFKKVSEGFGGHIKFFVSGGSKLNPQITKDFYTLGIKICEGYGMTETSPIISYTPKNNIVFDSAGKLEHHHHHH,not soluble
15,MVIQLQKGQKIDLGKTSPGLTKAVIGLGWDIKSYDGGSDFDLDASAFLLDANGKCTKETDFIFYNNLQSPCGSVLHTGDNRTGEGEGEGDDEQLVVDLKKVPADVHRIAITVTIYDAEGRSQNFGQVGNAFVRLANEETNEEVLRFDLGEDFSIETAVVFCELYRHNGQWKFNAVGSGFQGGLGALVRAYGLDA,not soluble
16,MVKFIHCADLHLDSPFKSKSYLSPNIFEDVQKSAYESFKNIVDLALKQEVDFIIIAGDLFDSENRTLRAEVFLNEQFERLRKEQIFVYICHGNHDPLTSKITSQWPNNVSVFSNQVETYQAITKSGETIYIHGFSYQNDASYENKIDAYPSSQGQKGIHIGVLHGTYSKSSVKDRYTEFRLEDLNQRLYHYWALGHIHQREQLSDMPVINYPGNIQGRHFNELGEKGCLLVEGDHLKLTTQFYPTQFIKFEEATIETDHTSKQGLYDVIQSFKDKVRTEGKSFYRLNVRINSEDIIAPQDLIQLKEMITEFEENENQFVFIEDLNLQYVQNDEMPIVKEFSPELLDDASLFDSAMTDLYLNPRASKFLDDYNEFDKVELVNHAERLLKDEMRGEQNDN,not soluble
17,MVKINITAETNGFVLLEHGEVFIKNNNDVSLKLIPNEQEVPLIINIEFANKGGRIASVDRNIVNDKLVFTCNNFQSEPGNWGGIIEPMLIAEMDDCNLYLSFLVWNIDTTNYNRLLNYSFWLKKK,not soluble
18,MVKTGIEDVCGHWGHNFWRDKFKKFDDKYLRNVLIRENQPKSSIVSLYKKLEIKHAIEMAETGMISTVPTFASLNDCREEKIRKVTSSETDEIRELLSRNLYQIRQRTLSYNRHSLTADTSERQAKEILIRRRHSLRESIRKDSSLNREHRASTSTSRYLSLPKNTKLPEKLQKRRTISIADGNSSSSDAHAGTTVLNLLEHHHHHH,not soluble
19,MVKTRLTAEEFFALPLERGELVDGEVREERPPKPEHGRIALRIGYHLMRWLEETGRGVAGVEGGFVLRRDPDRVRSPDVWFLSHERLKEVTREGFYEGAPDLAVEVVSPGEEAEGVLAKVLDYLEAGAKAVWLVYPELKAVEVYGRGGEGRLLRAHEVLEGGEALPGFRLPLEALFGQ,soluble
20,MVLFDQATYEKLLIEAPKFKLITPSILSDRMRVYICIYLLISYSRNDSYIIWQ,not soluble
21,MVLFDVKKYETPDAKDVDMEQTKHNVSVFLSAYLAARCRVGQPREPKVTASFSLVPPSTAKNTFEAEQMLIQKEEAQEEFDYLHKLFVRGYSAIQHPHKPDVTERRKRIFYDRYINGNPIYLAAQRNCISEESVKQESNMIIVQFASALELVAFK,not soluble
